Experiment [1] concerns the target T1, human Flag-tagged soluble TWEAK (amino acids 106-249) (human, UniProt O43508 106-249).
T1 construct: The sentence gives amino acids 106-249 without naming the entry; also called Human TWEAK; not shown: Flag tag
T1 sequence: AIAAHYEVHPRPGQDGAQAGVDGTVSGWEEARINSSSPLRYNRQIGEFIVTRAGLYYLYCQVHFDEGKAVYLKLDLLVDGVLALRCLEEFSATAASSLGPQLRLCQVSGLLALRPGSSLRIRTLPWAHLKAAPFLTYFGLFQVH
Kind of experiment: receptor interaction ELISA: Flag-TWEAK 2.5 ng/ml preincubated with antibody, then on coated human Fn14:Fc (competitor m21). The protocol:
(§1) 96-well Maxisorp® plates (Nunc) were coated with 100 μl 1 μg/ml human Fn14:Fc (extracellular domain of human Fn14 (amino acids 1-75 of SEQ ID NO: 98) fused to Fc portion of human IgG1) in PBS per well for 1.5 h at room temperature and blocked with a solution of 5% FBS in PBS for 30 minutes at room temperature under shaking. […] After washing the Fn14-coated plate once with wash buffer (0.1% Tween® 20 in PBS), 100 μl of the TWEAK-antibody solution were transferred to each well and the plate was incubated for 1 h at room temperature, followed by four washes with wash buffer. Wells were filled with 100 μl of anti-FLAG-HRP detection antibody, diluted 1:5000 in blocking buffer, and incubated for 1 h at room temperature. After four more wash steps, the signal was developed by addition of 100 μl 3,3,5,5-Tetramethylbenzidine (TMB) solution for approximately ten minutes. The reaction was stopped by adding 100 μl of 1 N HCl, and absorbance measured at 450 nm (reference wavelength 620 nm).

Experiment [2] concerns the target T2, Human recombinant soluble TWEAK (Example 6) (human, UniProt O43508 99-249, limits assumed).
T2 sequence: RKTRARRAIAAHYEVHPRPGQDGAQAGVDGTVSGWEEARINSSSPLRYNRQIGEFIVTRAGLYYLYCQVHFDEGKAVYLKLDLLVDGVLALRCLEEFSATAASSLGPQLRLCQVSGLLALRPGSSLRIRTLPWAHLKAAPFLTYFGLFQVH
Nature of the experiment: cell-based or functional assay.

Experiment [3] deals with T2, Human recombinant soluble TWEAK …. Kind of experiment: cell-based or functional assay. This is another data set of the same source.
Experiment [4] has as its target T1, human Flag-tagged soluble TWEAK (amino …). Kind of experiment: receptor interaction ELISA: Flag-TWEAK preincubated with antibody, then on coated human Fn14:Fc (competitor m21). Here is the method:
as §1

For experiment [5], the target named is T3, Biotinylated human soluble TWEAK (amino acids 99-249 of SEQ ID NO: 68) (human, UniProt O43508 99-249, biotinylated).
T3 construct: also called Human TWEAK
T3 sequence: T2 sequence
Nature of the experiment: SPR (Biacore), biotinylated soluble TWEAK on streptavidin chip, 25 C. Here is the method: A Biacore 2000 instrument was used with a Biacore streptavidin coated sensor mounted into the system. The system buffer HBS-ET (10 mM HEPES pH 7.4, 150 mM NaCl, 1 mM EDTA, 0.05% Tween® 20) was used at a flow rate of 100 μl/min. The sample buffer was the system buffer. Biotinylated human soluble TWEAK (amino acids 99-249 of SEQ ID NO: 68) and biotinylated murine soluble TWEAK (amino acids 81-225 of SEQ ID NO: 69) was immobilized on different flow cells on the SA sensor at 150 RU each. The flow cell FC1 was used as a blank reference cell. Each antibody was injected into the system as an analyte at 100 nM at 100 μl/min for 2 min association time. The dissociation of the immunecomplexes were monitored for 5 min. The sensor surface was washed with HBS-ET for 10 seconds and regenerated using 2×2 minutes injections with 10 mM glycine pH 2.25. This procedure was done at 25° C. The kinetically rate limiting step of the complex dissociation phase in the interval [240 s-300 s] was taken to calculate the dissociation rate kd [1/s] (Biacore Evaluation Software 4.0). According to the equation t1/2 diss=ln(2)/(60×kd), the half-life of the immunocomplexes in minutes was calculated.

The target of experiment [6] is T3, Biotinylated human soluble TWEAK (amino …). Kind of experiment: SPR (Biacore), biotinylated soluble TWEAK on streptavidin chip, 37 C.
Experiment [7] concerns the target T4, Mouse soluble TWEAK (untagged, Example 5) (mouse, UniProt O54907 105-249, limits assumed).
T4 construct: also called Murine TWEAK
T4 sequence: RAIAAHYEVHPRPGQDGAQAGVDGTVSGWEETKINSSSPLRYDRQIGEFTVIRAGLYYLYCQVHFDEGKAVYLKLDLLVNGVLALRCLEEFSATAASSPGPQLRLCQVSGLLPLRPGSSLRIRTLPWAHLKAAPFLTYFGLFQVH
Nature of the experiment: receptor interaction ELISA: mouse soluble TWEAK preincubated with antibody, then on coated mouse Fn14:Fc (competitor m22). The protocol: Briefly, Maxisorp plates were coated with mouse Fn14:Fc (extracellular domain of mouse Fn14 (amino acids 1-75 of SEQ ID NO: 98) fused to Fc portion of human IgG1) as described above for human Fn14:Fc, followed by blocking and washing. […] After 1 h of incubation at room temperature and four washes, biotinylated anti-mouse TWEAK antibody at 125 ng/ml in blocking buffer was added for 1 h at room temperature, followed by another four wash steps. The TWEAK antibody was detected by incubation with streptavidin-HRP, diluted 1:5000 in blocking buffer, for 30 minutes at room temperature. Signal was developed and absorbance measured as described above.

The target in experiment [8] is T5, Recombinant human TWEAK (R&D Systems; Cat. #1090-TW/CF) (human, UniProt O43508 97-249, limits assumed).
T5 sequence: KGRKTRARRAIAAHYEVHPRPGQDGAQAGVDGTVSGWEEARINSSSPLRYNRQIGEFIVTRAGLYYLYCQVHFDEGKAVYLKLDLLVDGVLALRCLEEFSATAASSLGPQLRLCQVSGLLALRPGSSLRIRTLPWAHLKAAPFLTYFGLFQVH
Kind of experiment: cell-based or functional assay.

The target of experiment [9] is recombinant human IL-17 (Peprotech #200-17) (human, UniProt Q16552 20-155). Nature of the experiment: cell-based or functional assay.
Sequence of recombinant human IL-17 (Peprotech #200-17) (Q16552 20-155 limits assumed): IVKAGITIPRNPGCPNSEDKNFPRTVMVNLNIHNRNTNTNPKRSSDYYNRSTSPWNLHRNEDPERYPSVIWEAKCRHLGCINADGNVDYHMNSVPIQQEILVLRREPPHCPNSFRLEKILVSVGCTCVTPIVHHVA

These results are taken from patent publication US20150132307A1 (Hoffmann-La Roche, published 2015).

Residue numbers refer to the chain shown, from its start.

B1: <TWEAK> 305 (rabbit) (antibody, V domains shown)
VH: QEQLVESGGGLVQPGGSLTLSCKASGFDFSTYYMSWVRQAPGKGLEWIGTVYVRQGTTYYASWLNGRFTISSDNAQNTVDLKMNSLTAADTATYFCAKGGYNYDDAFVIWGPGTLVTVSF
VL: AIEMTQTPFSVSAAVGGTVTINCQASQNIYSNLAWYQQKPGQPPKLLMYTASYLASGVPSRFKGSGSRTEYTLTISGVQCADAATYYCQTAYYNSRPDTVAFGGGTEVVVK
notes: Rabbit parent antibody
For B1, in experiment [1], the half-maximal inhibitory concentration (IC50) stood at 2.5 ng/mL. For the same molecule, the “Inhibition of IL-8 Secretion IC50 [ng/ml] (A375 cells)” value in experiment [2] was found to be 99 ng/mL.

B2: Humanized <TWEAK> 305- antibody 28 (antibody, V domains shown)
VH: EVQLLESGGGLVQPGGSLTLSCAASGFDFSTYYMSWVRQAPGKGLEWVSTVYVRQGTTYYASWLNGRFTISRDNSKNTLYLQMNSLRAEDTAVYYCAKGGYNYDDAFVIWGQGTLVTVSS
VL: DIQMTQSPSSVSASVGDRVTITCQASQNIYSNLAWYQQKPGKAPKLLIYTASYLASGVPSRFSGSGSGTDYTLTISSLQPEDFATYYCQTAYYNSRPDTVAFGGGTKVEIK
On to B2, for which the “Inhibition of IL8-Secretion [ng/ml] (A375 cells)” value (shortened to “Inhibition of IL8-Secretion”) in experiment [3] turned out to be 165 ng/mL. Further, the 50% inhibitory concentration (IC50) turned out to be 1.5 ng/mL in experiment [4] and 6.5 ng/mL in experiment [7]. Besides, the “Biacore t/2 diss. [min] 25° C. human” value in experiment [5] is 87 min. Moreover, in [6], the “Biacore t/2 diss. [min] 37° C. human” value was 115 min.

B3: Humanized <TWEAK> 305- antibody 30 (antibody, V domains shown)
VH: B2 VH with T19R, R87T
VL: B2 VL with Y71F
As for B3, in experiment [3], the “Inhibition of IL8-Secretion” value turned out to be 207 ng/mL. Also, the half-maximal inhibitory concentration (IC50) came out at 2.3 ng/mL in experiment [4] and 7.6 ng/mL in [7]. For the same molecule, in experiment [5], the “Biacore t/2 diss. [min] 25° C. human” value was 50 min. Besides, the “Biacore t/2 diss. [min] 37° C. human” value in experiment [6] was 45 min.

B4: Humanized <TWEAK> 305- antibody 31 (antibody, V domains shown)
VH: B2 VH
VL: B2 VL with D1A, Q3R, V11F, V15T, S77C, P80S
In the case of B4, in experiment [3], the “Inhibition of IL8-Secretion” value turned out to be 94 ng/mL. Moreover, the IC50 in experiment [4] came to 1.7 ng/mL; in [7], 7.1 ng/mL. In addition, the “Biacore t/2 diss. [min] 25° C. human” value in experiment [5] was found to be 115 min. In addition, the “Biacore t/2 diss. [min] 37° C. human” value in experiment [6] was found to be 151 min.

B5: Humanized <TWEAK> 305- antibody 34 (antibody, V domains shown)
VH: B2 VH with T19R
VL: B2 VL with D1A, Q3R, V11F, V15T, S77C, P80S
B5: in [3], the “Inhibition of IL8-Secretion” value was 24 ng/mL. The IC50 in [4] worked out at 1.9 ng/mL; in experiment [7], 5.9 ng/mL. For the same molecule, the “Biacore t/2 diss. [min] 25° C. human” value in [5] was determined as 158 min. Also, the “Biacore t/2 diss. [min] 37° C. human” value in [6] was determined as 185 min.

B6: Humanized <TWEAK> 305- antibody 29 (antibody, V domains shown)
VH: B2 VH with T19R, Y80D
VL: B2 VL
For the molecule B6, the “Inhibition of IL8-Secretion” value in experiment [3] came to 78 ng/mL. Moreover, the IC50 in experiment [4] is 1.8 ng/mL; in [7], 5.7 ng/mL. Besides, in [5], the “Biacore t/2 diss. [min] 25° C. human” value worked out at 146 min. Further, in experiment [6], the “Biacore t/2 diss. [min] 37° C. human” value was 195 min.

B7: Humanized <TWEAK> 305- antibody 33 (antibody, V domains shown)
VH: QVQLVQSGAEVKKPGSSVKVSCKASGFDFSTYYMSWVRQAPGQGLEWMGTVYVRQGTTYYASWLNGRVTITADESTSTAYMELSSLRSEDTAVYYCARGGYNYDDAFVIWGQGTLVTVSS
VL: B2 VL with D1A, Q3R, V11F, V15T, S77C, P80S
Regarding B7, the “Inhibition of IL8-Secretion” value in experiment [3] stood at 26 ng/mL. Moreover, the IC50 in [4] turned out to be 1.7 ng/mL; in experiment [7], 6.7 ng/mL. In addition, in experiment [5], the “Biacore t/2 diss. [min] 25° C. human” value came out at 127 min. The “Biacore t/2 diss. [min] 37° C. human” value in [6] was 99 min.

B8: Humanized <TWEAK> 305- antibody 32 (antibody, V domains shown)
VH: B2 VH with T19R, Y80D
VL: B2 VL with S10T, V11L, D70E, Y71F, E81D
Take B8: in experiment [3], the “Inhibition of IL8-Secretion” value amounted to 134 ng/mL. Besides, the results for the IC50 in experiment [4] and in experiment [7] were 1.5 ng/mL and 5.4 ng/mL, respectively. Also, in experiment [5], the “Biacore t/2 diss. [min] 25° C. human” value turned out to be 67 min. In [6], the “Biacore t/2 diss. [min] 37° C. human” value is 50 min.

B9: Bispecific <Tweak-IL-17> #5 antibody (bispecific antibody, human IgG1, kappa)
heavy: not shown
light: DIQMTQSPSSVSASVGDRVTITCQASQNIYSNLAWYQQKPGKAPKLLIYTASYLASGVPSRFSGSGSGTDYTLTISSLQPEDFATYYCQTAYYNSRPDTVAFGGGTKVEIKRTVAAPSVFIFPPSDEQLKSGTASVVCLLNNFYPREAKVQWKVDNALQSGNSQESVTEQDSKDSTYSLSSTLTLSKADYEKHKVYACEVTHQGLSSPVTKSFNRGEC
Regarding B9, the “IC50 (nM) per valency, Tweak induced HFLS proliferation (CellTiter Glo)” value in experiment [8] was found to be 0.152 nM. In experiment [9], the “IL-6 IC50 [nM] per valency (IL-17 induced cytokine production, HFLS-RA)” value came out at 1.32 nM and the “IL-8 IC50 [nM] per valency (IL-17 induced cytokine production, HFLS-RA)” value is 1.12 nM.

B10: Bispecific <Tweak-IL-17> #21 antibody (bispecific antibody, human IgG4 S228P, kappa)
heavy 1: EVQLVESGGGLVQPGGSLRLSCAASGFSLDSYGVHWVRQAPGKGLEWVSVIWSDGTTTYNSALKSRFTISRDNSKNTLYLQMNSLRAEDTAVYYCARDTHYRLYYYAMDYWGQGTTVTVSSASTKGPSVFPLAPCSRSTSESTAALGCLVKDYFPEPVTVSWNSGALTSGVHTFPAVLQSSGLYSLSSVVTVPSSSLGTKTYTCNVDHKPSNTKVDKRVESKYGPPCPPCPAPEFEGGPSVFLFPPKPKDTLMISRTPEVTCVVVDVSQEDPEVQFNWYVDGVEVHNAKTKPREEQFNSTYRVVSVLTVLHQDWLNGKEYKCKVSNKGLPSSIEKTISKAKGQPREPQVCTLPPSQEEMTKNQVSLSCAVKGFYPSDIAVEWESNGQPENNYKTTPPVLDSDGSFFLVSRLTVDKSRWQEGNVFSCSVMHEALHNHYTQKSLSLSLGK
heavy 2: not shown
light: DIVMTQSPLSLPVTPGEPASISCRSSQSLVHSNGDTYFHWYLQKPGQSPQLLIYKVSNRFSGVPDRFSGSGSGTDFTLKISRVEAEDVGVYYCSQTTHAPFTFGQGTKLEIKRTVAAPSVFIFPPSDEQLKSGTASVVCLLNNFYPREAKVQWKVDNALQSGNSQESVTEQDSKDSTYSLSSTLTLSKADYEKHKVYACEVTHQGLSSPVTKSFNRGEC
As to B10, in experiment [9], the “IL-6 IC50 [nM] per valency (IL-17 induced cytokine production, HFLS-RA)” value worked out at 2.71 nM and the “IL-8 IC50 [nM] per valency (IL-17 induced cytokine production, HFLS-RA)” value was found to be 1.71 nM.
